# Assay results as given in patent publication US20130316941A1 (Boehringer Ingelheim, published 2013).
# Starred links: 1 amine or outer side, 2 acyl side, 3 side chain; linkers in the order of their positions; H or OH if unused. Non-standard residues stand in square brackets, D forms with d. Groups on a side chain read outwards from the residue. *: point of attachment. γGlu = O=C(O)[C@H](CCC(=O)[*:2])N[*:1]; Palmitoyl = CCCCCCCCCCCCCCCC(=O)*
# B1: H-H-DSer-HGTFTSDYSRYLDE-K(Hexadecanoyl-isoGlu)-RARDFIEWLLSA-NH2 [Compound 11] (peptide)
# peptide: HXHGTFTSDYSRYLDEKRARDFIEWLLSA
# HELM: PEPTIDE1{H.[dS].H.G.T.F.T.S.D.Y.S.R.Y.L.D.E.K.R.A.R.D.F.I.E.W.L.L.S.A.[am]}|PEPTIDE2{[CCCCCCCCCCCCCCCC(=O)[*:2]].[gGlu]}$PEPTIDE1,PEPTIDE2,17:R3-2:R2$$$V2.0
# SMILES: CCCCCCCCCCCCCCCC(=O)N[C@@H](CCC(=O)NCCCC[C@H](NC(=O)[C@H](CCC(=O)O)NC(=O)[C@H](CC(=O)O)NC(=O)[C@H](CC(C)C)NC(=O)[C@H](Cc1ccc(O)cc1)NC(=O)[C@H](CCCNC(=N)N)NC(=O)[C@H](CO)NC(=O)[C@H](Cc1ccc(O)cc1)NC(=O)[C@H](CC(=O)O)NC(=O)[C@H](CO)NC(=O)[C@@H](NC(=O)[C@H](Cc1ccccc1)NC(=O)[C@@H](NC(=O)CNC(=O)[C@H](Cc1c[nH]cn1)NC(=O)[C@@H](CO)NC(=O)[C@@H](N)Cc1c[nH]cn1)[C@@H](C)O)[C@@H](C)O)C(=O)N[C@@H](CCCNC(=N)N)C(=O)N[C@@H](C)C(=O)N[C@@H](CCCNC(=N)N)C(=O)N[C@@H](CC(=O)O)C(=O)N[C@@H](Cc1ccccc1)C(=O)N[C@H](C(=O)N[C@@H](CCC(=O)O)C(=O)N[C@@H](Cc1c[nH]c2ccccc12)C(=O)N[C@@H](CC(C)C)C(=O)N[C@@H](CC(C)C)C(=O)N[C@@H](CO)C(=O)N[C@@H](C)C(N)=O)[C@@H](C)CC)C(=O)O
# B2: H-H-Aib-HGTFTSDYSRYLDE-K(Hexadecanoyl-isoGlu)-RARDFIEWLLSA-NH2 [Compound 12] (peptide)
# peptide: HXHGTFTSDYSRYLDEKRARDFIEWLLSA
# HELM: PEPTIDE1{H.[Aib].H.G.T.F.T.S.D.Y.S.R.Y.L.D.E.K.R.A.R.D.F.I.E.W.L.L.S.A.[am]}|PEPTIDE2{[CCCCCCCCCCCCCCCC(=O)[*:2]].[gGlu]}$PEPTIDE1,PEPTIDE2,17:R3-2:R2$$$V2.0
# SMILES: CCCCCCCCCCCCCCCC(=O)N[C@@H](CCC(=O)NCCCC[C@H](NC(=O)[C@H](CCC(=O)O)NC(=O)[C@H](CC(=O)O)NC(=O)[C@H](CC(C)C)NC(=O)[C@H](Cc1ccc(O)cc1)NC(=O)[C@H](CCCNC(=N)N)NC(=O)[C@H](CO)NC(=O)[C@H](Cc1ccc(O)cc1)NC(=O)[C@H](CC(=O)O)NC(=O)[C@H](CO)NC(=O)[C@@H](NC(=O)[C@H](Cc1ccccc1)NC(=O)[C@@H](NC(=O)CNC(=O)[C@H](Cc1c[nH]cn1)NC(=O)C(C)(C)NC(=O)[C@@H](N)Cc1c[nH]cn1)[C@@H](C)O)[C@@H](C)O)C(=O)N[C@@H](CCCNC(=N)N)C(=O)N[C@@H](C)C(=O)N[C@@H](CCCNC(=N)N)C(=O)N[C@@H](CC(=O)O)C(=O)N[C@@H](Cc1ccccc1)C(=O)N[C@H](C(=O)N[C@@H](CCC(=O)O)C(=O)N[C@@H](Cc1c[nH]c2ccccc12)C(=O)N[C@@H](CC(C)C)C(=O)N[C@@H](CC(C)C)C(=O)N[C@@H](CO)C(=O)N[C@@H](C)C(N)=O)[C@@H](C)CC)C(=O)O
# B3: H-HSHGTFTSDYSRYLDE-K(Hexadecanoyl-isoGlu)-RARDFIEWLLSA-NH2 [Compound 10] (peptide)
# peptide: HSHGTFTSDYSRYLDEKRARDFIEWLLSA
# HELM: PEPTIDE1{H.S.H.G.T.F.T.S.D.Y.S.R.Y.L.D.E.K.R.A.R.D.F.I.E.W.L.L.S.A.[am]}|PEPTIDE2{[CCCCCCCCCCCCCCCC(=O)[*:2]].[gGlu]}$PEPTIDE1,PEPTIDE2,17:R3-2:R2$$$V2.0
# SMILES: CCCCCCCCCCCCCCCC(=O)N[C@@H](CCC(=O)NCCCC[C@H](NC(=O)[C@H](CCC(=O)O)NC(=O)[C@H](CC(=O)O)NC(=O)[C@H](CC(C)C)NC(=O)[C@H](Cc1ccc(O)cc1)NC(=O)[C@H](CCCNC(=N)N)NC(=O)[C@H](CO)NC(=O)[C@H](Cc1ccc(O)cc1)NC(=O)[C@H](CC(=O)O)NC(=O)[C@H](CO)NC(=O)[C@@H](NC(=O)[C@H](Cc1ccccc1)NC(=O)[C@@H](NC(=O)CNC(=O)[C@H](Cc1c[nH]cn1)NC(=O)[C@H](CO)NC(=O)[C@@H](N)Cc1c[nH]cn1)[C@@H](C)O)[C@@H](C)O)C(=O)N[C@@H](CCCNC(=N)N)C(=O)N[C@@H](C)C(=O)N[C@@H](CCCNC(=N)N)C(=O)N[C@@H](CC(=O)O)C(=O)N[C@@H](Cc1ccccc1)C(=O)N[C@H](C(=O)N[C@@H](CCC(=O)O)C(=O)N[C@@H](Cc1c[nH]c2ccccc12)C(=O)N[C@@H](CC(C)C)C(=O)N[C@@H](CC(C)C)C(=O)N[C@@H](CO)C(=O)N[C@@H](C)C(N)=O)[C@@H](C)CC)C(=O)O
# B4: H-H-Aib-QGTFTSDYSKYLD-K(Hexadecanoyl-isoGlu)-RRAKDFIEWLLSA-NH2 [Compound 1] (peptide)
# peptide: HXQGTFTSDYSKYLDKRRAKDFIEWLLSA
# HELM: PEPTIDE1{H.[Aib].Q.G.T.F.T.S.D.Y.S.K.Y.L.D.K.R.R.A.K.D.F.I.E.W.L.L.S.A.[am]}|PEPTIDE2{[CCCCCCCCCCCCCCCC(=O)[*:2]].[gGlu]}$PEPTIDE1,PEPTIDE2,16:R3-2:R2$$$V2.0
# SMILES: CCCCCCCCCCCCCCCC(=O)N[C@@H](CCC(=O)NCCCC[C@H](NC(=O)[C@H](CC(=O)O)NC(=O)[C@H](CC(C)C)NC(=O)[C@H](Cc1ccc(O)cc1)NC(=O)[C@H](CCCCN)NC(=O)[C@H](CO)NC(=O)[C@H](Cc1ccc(O)cc1)NC(=O)[C@H](CC(=O)O)NC(=O)[C@H](CO)NC(=O)[C@@H](NC(=O)[C@H](Cc1ccccc1)NC(=O)[C@@H](NC(=O)CNC(=O)[C@H](CCC(N)=O)NC(=O)C(C)(C)NC(=O)[C@@H](N)Cc1c[nH]cn1)[C@@H](C)O)[C@@H](C)O)C(=O)N[C@@H](CCCNC(=N)N)C(=O)N[C@@H](CCCNC(=N)N)C(=O)N[C@@H](C)C(=O)N[C@@H](CCCCN)C(=O)N[C@@H](CC(=O)O)C(=O)N[C@@H](Cc1ccccc1)C(=O)N[C@H](C(=O)N[C@@H](CCC(=O)O)C(=O)N[C@@H](Cc1c[nH]c2ccccc12)C(=O)N[C@@H](CC(C)C)C(=O)N[C@@H](CC(C)C)C(=O)N[C@@H](CO)C(=O)N[C@@H](C)C(N)=O)[C@@H](C)CC)C(=O)O
# B5: H-H-Aib-QGTFTSDYSRYLDE-K(Hexadecanoyl-isoGlu)-RARDFIEWLLSA-NH2 [Compound 9] (peptide)
# peptide: HXQGTFTSDYSRYLDEKRARDFIEWLLSA
# HELM: PEPTIDE1{H.[Aib].Q.G.T.F.T.S.D.Y.S.R.Y.L.D.E.K.R.A.R.D.F.I.E.W.L.L.S.A.[am]}|PEPTIDE2{[CCCCCCCCCCCCCCCC(=O)[*:2]].[gGlu]}$PEPTIDE1,PEPTIDE2,17:R3-2:R2$$$V2.0
# SMILES: CCCCCCCCCCCCCCCC(=O)N[C@@H](CCC(=O)NCCCC[C@H](NC(=O)[C@H](CCC(=O)O)NC(=O)[C@H](CC(=O)O)NC(=O)[C@H](CC(C)C)NC(=O)[C@H](Cc1ccc(O)cc1)NC(=O)[C@H](CCCNC(=N)N)NC(=O)[C@H](CO)NC(=O)[C@H](Cc1ccc(O)cc1)NC(=O)[C@H](CC(=O)O)NC(=O)[C@H](CO)NC(=O)[C@@H](NC(=O)[C@H](Cc1ccccc1)NC(=O)[C@@H](NC(=O)CNC(=O)[C@H](CCC(N)=O)NC(=O)C(C)(C)NC(=O)[C@@H](N)Cc1c[nH]cn1)[C@@H](C)O)[C@@H](C)O)C(=O)N[C@@H](CCCNC(=N)N)C(=O)N[C@@H](C)C(=O)N[C@@H](CCCNC(=N)N)C(=O)N[C@@H](CC(=O)O)C(=O)N[C@@H](Cc1ccccc1)C(=O)N[C@H](C(=O)N[C@@H](CCC(=O)O)C(=O)N[C@@H](Cc1c[nH]c2ccccc12)C(=O)N[C@@H](CC(C)C)C(=O)N[C@@H](CC(C)C)C(=O)N[C@@H](CO)C(=O)N[C@@H](C)C(N)=O)[C@@H](C)CC)C(=O)O
# B6: H-H-DSer-PGTFTSDYSRYLDE-K(Hexadecanoyl-isoGlu)-RARDFIEWLLSA-NH2 [Compound 14] (peptide)
# peptide: HXPGTFTSDYSRYLDEKRARDFIEWLLSA
# HELM: PEPTIDE1{H.[dS].P.G.T.F.T.S.D.Y.S.R.Y.L.D.E.K.R.A.R.D.F.I.E.W.L.L.S.A.[am]}|PEPTIDE2{[CCCCCCCCCCCCCCCC(=O)[*:2]].[gGlu]}$PEPTIDE1,PEPTIDE2,17:R3-2:R2$$$V2.0
# SMILES: CCCCCCCCCCCCCCCC(=O)N[C@@H](CCC(=O)NCCCC[C@H](NC(=O)[C@H](CCC(=O)O)NC(=O)[C@H](CC(=O)O)NC(=O)[C@H](CC(C)C)NC(=O)[C@H](Cc1ccc(O)cc1)NC(=O)[C@H](CCCNC(=N)N)NC(=O)[C@H](CO)NC(=O)[C@H](Cc1ccc(O)cc1)NC(=O)[C@H](CC(=O)O)NC(=O)[C@H](CO)NC(=O)[C@@H](NC(=O)[C@H](Cc1ccccc1)NC(=O)[C@@H](NC(=O)CNC(=O)[C@@H]1CCCN1C(=O)[C@@H](CO)NC(=O)[C@@H](N)Cc1c[nH]cn1)[C@@H](C)O)[C@@H](C)O)C(=O)N[C@@H](CCCNC(=N)N)C(=O)N[C@@H](C)C(=O)N[C@@H](CCCNC(=N)N)C(=O)N[C@@H](CC(=O)O)C(=O)N[C@@H](Cc1ccccc1)C(=O)N[C@H](C(=O)N[C@@H](CCC(=O)O)C(=O)N[C@@H](Cc1c[nH]c2ccccc12)C(=O)N[C@@H](CC(C)C)C(=O)N[C@@H](CC(C)C)C(=O)N[C@@H](CO)C(=O)N[C@@H](C)C(N)=O)[C@@H](C)CC)C(=O)O
# Target: human glucagon receptor (Glucagon-R) (human, UniProt P47871 26-477)
# Experiment: cell-based or functional assay
# Chain of human glucagon receptor (Glucagon-R) (P47871 26-477): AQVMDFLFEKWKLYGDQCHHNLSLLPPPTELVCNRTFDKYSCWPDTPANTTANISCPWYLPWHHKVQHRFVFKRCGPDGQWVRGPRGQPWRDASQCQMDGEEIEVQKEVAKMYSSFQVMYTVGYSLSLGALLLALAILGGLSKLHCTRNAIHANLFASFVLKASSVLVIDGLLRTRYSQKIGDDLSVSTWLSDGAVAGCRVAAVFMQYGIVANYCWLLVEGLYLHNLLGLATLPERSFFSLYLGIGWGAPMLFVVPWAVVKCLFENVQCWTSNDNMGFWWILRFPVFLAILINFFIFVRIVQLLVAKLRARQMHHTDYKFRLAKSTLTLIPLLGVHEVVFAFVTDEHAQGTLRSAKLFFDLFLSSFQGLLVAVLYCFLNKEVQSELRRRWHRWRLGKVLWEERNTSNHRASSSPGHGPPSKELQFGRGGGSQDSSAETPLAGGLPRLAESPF
row,Binder,EC50 values for cAMP generation in HEK293 cells expressing Glucagon receptor
1,B1,90 pM
2,B2,140 pM
3,B3,60 pM
4,B4,150 pM
5,H-H[dS]QGTFTSDYSRYLDEK([γGlu-Palmitoyl])RARDFIEWLLSA-NH2 [H-H-DSer-QGTFTSDYSRYLDE-K(Hexadecanoyl-isoGlu)-RARDFIEWLLSA-NH2 [Compound 8]],200 pM
6,B5,100 pM
7,B6,190 pM

# Target: human glucagon-like peptide 1 receptor (GLP-1R) (human, UniProt P43220 24-463)
# Experiment: cell-based or functional assay
row,Binder,EC50 values for cAMP generation in HEK293 cells expressing GLP-1 receptor
1,B1,150 pM
2,B2,60 pM
3,B3,470 pM
4,B4,120 pM
5,H-H[dS]QGTFTSDYSRYLDEK([γGlu-Palmitoyl])RARDFIEWLLSA-NH2 [H-H-DSer-QGTFTSDYSRYLDE-K(Hexadecanoyl-isoGlu)-RARDFIEWLLSA-NH2 [Compound 8]],200 pM
6,B5,50 pM
7,B6,120 pM
